Experimental data: paper doi:10.1101/2024.07.15.603533 (bioRxiv, 2024)
Where a chain is given by its changes, count along the chain named. In names and notes the source's numbering stands.

B1: recombinant kinetoplastid membrane protein-11 (r-KMP-11), wild type (natural protein, Leishmania donovani)
chain: MATTYEEFSAKLDRLDQEFNRKMQEQNAKFFADKPDESTLSPEMREHYEKFERMIKEHTEKFNKKMHEHSEHFKQKFAELLEQQKAAQYPSK
B2: Alexa488-maleimide labelled r-KMP-11 S38C (natural protein, Leishmania donovani)
chain: B1 chain with S38C
modifications: Alexa 488 maleimide on the single cysteine (S38C); labeling percentage 86%

What was measured:
[1] = target: the molecule itself; assay: negative stain electron microscopy
[2] = target: the molecule itself; assay: single-molecule photobleaching step analysis
[3] = target: B1; assay: fluorescence correlation spectroscopy

| Binder | stoichiometry N [1] | stoichiometry N [2] | binding result [3] |
| --- | --- | --- | --- |
| B1 | 4 | – | – |
| B2 | – | 4 | binds |
